In patent US20210246204A1 (Alector, published 2021):

Legend:
[1] = molecular target: T1, histidine-tagged human Siglec-7 (NovoProtein) (human, UniProt Q9Y286 19-353); test: BLI, antibody captured
T1 construct: Bought protein; also called recombinant human Siglec-7; recombinant Siglec-7; not shown: histidine tag
Procedure: In this assay, the humanized antibodies were compared directly to S7AB. Briefly, the antibodies were captured on anti-human or anti-mouse IgG Fc Biosensors (Pall ForteBio). Varying concentrations (0-100 nM) of histidine-tagged human Siglec-7 (NovoProtein) were then bound to the captured anti-Siglec-7 surface (200 s association time, 900 s dissociation time). Multi-concentration kinetic analysis was performed using a 1:1 interaction model to extract association and dissociation rate constants (kₐ and kd, respectively) for each antibody. Apparent affinity constants (KD) were calculated from the ratio kd/kₐ.
The affinities of S7AB-H8 and variants S7AB-H8.1 through S7AB-H8.45 for human Siglec-7 were measured by BioLayer Interferometry according to the method described in Example 1 above.

[2] = molecular target: human Siglec-7 on primary human monocyte-derived dendritic cells (human, UniProt Q9Y286 19-467); test: cell-based or functional assay
human Siglec-7 on primary human monocyte-derived dendritic cells, sequence (Q9Y286 19-467): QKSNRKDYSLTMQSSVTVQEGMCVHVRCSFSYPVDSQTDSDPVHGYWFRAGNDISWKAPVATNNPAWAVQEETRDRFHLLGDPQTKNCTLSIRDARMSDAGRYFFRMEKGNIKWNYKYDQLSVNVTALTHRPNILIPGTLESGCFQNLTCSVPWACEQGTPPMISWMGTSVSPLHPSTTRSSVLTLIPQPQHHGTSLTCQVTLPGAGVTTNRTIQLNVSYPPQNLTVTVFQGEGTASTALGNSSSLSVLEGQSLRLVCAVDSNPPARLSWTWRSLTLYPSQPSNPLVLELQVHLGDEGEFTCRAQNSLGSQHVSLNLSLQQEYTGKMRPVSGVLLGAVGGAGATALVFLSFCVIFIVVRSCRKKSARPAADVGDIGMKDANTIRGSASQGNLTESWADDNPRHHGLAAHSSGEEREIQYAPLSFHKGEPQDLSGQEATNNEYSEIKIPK

T1 sequence (Q9Y286 19-353 limits assumed): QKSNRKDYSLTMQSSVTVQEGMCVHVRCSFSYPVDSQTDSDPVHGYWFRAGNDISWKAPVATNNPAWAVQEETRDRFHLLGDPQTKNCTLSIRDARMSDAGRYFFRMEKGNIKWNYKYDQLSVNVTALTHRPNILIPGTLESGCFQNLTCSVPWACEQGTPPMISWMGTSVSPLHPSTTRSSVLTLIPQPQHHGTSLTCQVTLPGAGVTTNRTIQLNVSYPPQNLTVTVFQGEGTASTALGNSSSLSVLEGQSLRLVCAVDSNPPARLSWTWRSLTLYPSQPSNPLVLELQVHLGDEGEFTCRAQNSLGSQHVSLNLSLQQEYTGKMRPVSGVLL

Row | Binder | Kd [1] | fold improvement over S7AB-H8 [1] | koff [1] | kon [1] | Fold increase in potency compared to AB-H8 [2] | Fold increase in potency compared to Chimeric Ab [2] | Maximal downregulation (% Siglec-7 remaining) [2] | Receptor downregulation, (EC50) (pM) [2]
1 | S7AB-H8.21 (antibody, V domains shown) VH: QVQLVQSGAEVKKPGASVKVSCKASGYAFTETWMNWVRQAPGQGLEWIGRIFPGLGHTNYAQKFQGRATLTEDTSTSTAYMELSSLRSEDTAVYYCARDYSDYYFDYWGQGTLVTVSS VL: DIQMTQSPSSLSASVGDRVTITCRASEDINTYLNWYQQKPGKAPKLLIYYTSRLHSGVPSRFSGSGSGTDYTLTISSLQPEDFATYYCQQGGTLPWTFGQGTKLEIK | 0.936 nM | 1.1 fold | 0.000125 s⁻¹ | 133000 M⁻¹ s⁻¹ | 2.2 fold | 6.8 fold | 13.6% | 152 pM
2 | S7AB-H8.30 (antibody, V domains shown) VH: QVQLVQSGAEVKKPGASVKVSCKASGYAFTEAWMNWVRQAPGQGLEWIGRIFPGYGHTNYAQKFQGRATLTEDTSTSTAYMELSSLRSEDTAVYYCARDYSDYYFDYWGQGTLVTVSS VL: DIQMTQSPSSLSASVGDRVTITCRASQDANTYLNWYQQKPGKAPKLLIYYTSRLHSGVPSRFSGSGSGTDYTLTISSLQPEDFATYYCQQGNLLPWTFGQGTKLEIK | 0.395 nM | 2.7 fold | 4.13e-05 s⁻¹ | 105000 M⁻¹ s⁻¹ | 2.7 fold | 8.2 fold | 8.2% | 126 pM
3 | S7AB-H8.28 (antibody, V domains shown) VH: QVQLVQSGAEVKKPGASVKVSCKASGYAFTGYWMNWVRQAPGQGLEWIGRIFPGLGHTNYAQKFQGRATLTEDTSTSTAYMELSSLRSEDTAVYYCARDYSDYYFDYWGQGTLVTVSS VL: DIQMTQSPSSLSASVGDRVTITCRASQDANTYLNWYQQKPGKAPKLLIYYTSRLHSGVPSRFSGSGSGTDYTLTISSLQPEDFATYYCQQGNLLPWTFGQGTKLEIK | 0.159 nM | 6.6 fold | 3.51e-05 s⁻¹ | 221000 M⁻¹ s⁻¹ | 4.6 fold | 13.7 fold | 17% | 74.6 pM
4 | S7AB-H8.25 (antibody, V domains shown) VH: QVQLVQSGAEVKKPGASVKVSCKASGYAFTEAWMNWVRQAPGQGLEWIGRIFPGYGHTNYAQKFQGRATLTEDTSTSTAYMELSSLRSEDTAVYYCARDYSDYYFDYWGQGTLVTVSS VL: DIQMTQSPSSLSASVGDRVTITCRASEDINTYLNWYQQKPGKAPKLLIYYTSRLHSGVPSRFSGSGSGTDYTLTISSLQPEDFATYYCQQGGTLPWTFGQGTKLEIK | 0.265 nM | 4 fold | 2.77e-05 s⁻¹ | 104000 M⁻¹ s⁻¹ | 1.8 fold | 5.4 fold | 9.2% | 189 pM
5 | S7AB-H8.33 (antibody, V domains shown) VH: QVQLVQSGAEVKKPGASVKVSCKASGYAFTGYWMNWVRQAPGQGLEWIGRIFPGLGHTNYAQKFQGRATLTEDTSTSTAYMELSSLRSEDTAVYYCARDYSDYYFDYWGQGTLVTVSS VL: DIQMTQSPSSLSASVGDRVTITCRGSQDINTYLNWYQQKPGKAPKLLIYYTSRLHSGVPSRFSGSGSGTDYTLTISSLQPEDFATYYCQQGGTLPWTFGQGTKLEIK | 0.326 nM | 3.2 fold | 7.64e-05 s⁻¹ | 235000 M⁻¹ s⁻¹ | 5.2 fold | 15.7 fold | 17.2% | 65.3 pM
6 | S7AB-H8.26 (antibody, V domains shown) VH: QVQLVQSGAEVKKPGASVKVSCKASGYAFTETWMNWVRQAPGQGLEWIGRIFPGLGHTNYAQKFQGRATLTEDTSTSTAYMELSSLRSEDTAVYYCARDYSDYYFDYWGQGTLVTVSS VL: DIQMTQSPSSLSASVGDRVTITCRASQDANTYLNWYQQKPGKAPKLLIYYTSRLHSGVPSRFSGSGSGTDYTLTISSLQPEDFATYYCQQGNLLPWTFGQGTKLEIK | 0.397 nM | 2.6 fold | 5.9e-05 s⁻¹ | 149000 M⁻¹ s⁻¹ | 1.9 fold | 5.7 fold | 9.8% | 180 pM
7 | S7AB-H8.31 (antibody, V domains shown) VH: QVQLVQSGAEVKKPGASVKVSCKASGYAFTETWMNWVRQAPGQGLEWIGRIFPGLGHTNYAQKFQGRATLTEDTSTSTAYMELSSLRSEDTAVYYCARDYSDYYFDYWGQGTLVTVSS VL: DIQMTQSPSSLSASVGDRVTITCRGSQDINTYLNWYQQKPGKAPKLLIYYTSRLHSGVPSRFSGSGSGTDYTLTISSLQPEDFATYYCQQGGTLPWTFGQGTKLEIK | 0.742 nM | 1.4 fold | 0.000107 s⁻¹ | 145000 M⁻¹ s⁻¹ | 2.4 fold | 7.2 fold | 10.5% | 143 pM
8 | S7AB-H8.24 (antibody, V domains shown) VH: QVQLVQSGAEVKKPGASVKVSCKASGYAFTAAWMNWVRQAPGQGLEWIGRIFPGLGHTNYAQKFQGRATLTEDTSTSTAYMELSSLRSEDTAVYYCARDYSDYYFDYWGQGTLVTVSS VL: DIQMTQSPSSLSASVGDRVTITCRASEDINTYLNWYQQKPGKAPKLLIYYTSRLHSGVPSRFSGSGSGTDYTLTISSLQPEDFATYYCQQGGTLPWTFGQGTKLEIK | 0.0368 nM | 28.5 fold | 4.81e-06 s⁻¹ | 131000 M⁻¹ s⁻¹ | 2.6 fold | 8 fold | 4.3% | 129 pM
9 | S7AB-H8.29 (antibody, V domains shown) VH: QVQLVQSGAEVKKPGASVKVSCKASGYAFTAAWMNWVRQAPGQGLEWIGRIFPGLGHTNYAQKFQGRATLTEDTSTSTAYMELSSLRSEDTAVYYCARDYSDYYFDYWGQGTLVTVSS VL: DIQMTQSPSSLSASVGDRVTITCRASQDANTYLNWYQQKPGKAPKLLIYYTSRLHSGVPSRFSGSGSGTDYTLTISSLQPEDFATYYCQQGNLLPWTFGQGTKLEIK | 0.263 nM | 4 fold | 4e-05 s⁻¹ | 152000 M⁻¹ s⁻¹ | 6.7 fold | 20 fold | 3.7% | 51.1 pM
10 | S7AB-H8.27 (antibody, V domains shown) VH: QVQLVQSGAEVKKPGASVKVSCKASGYAFTMAWMNWVRQAPGQGLEWIGRIFPGYGHTNYAQKFQGRATLTEDTSTSTAYMELSSLRSEDTAVYYCARDYSDYYFDYWGQGTLVTVSS VL: DIQMTQSPSSLSASVGDRVTITCRASQDANTYLNWYQQKPGKAPKLLIYYTSRLHSGVPSRFSGSGSGTDYTLTISSLQPEDFATYYCQQGNLLPWTFGQGTKLEIK | 0.1 nM | 10.5 fold | 1.56e-05 s⁻¹ | 156000 M⁻¹ s⁻¹ | 3.6 fold | 10.9 fold | 2.9% | 93.7 pM
11 | S7AB-H8.23 (antibody, V domains shown) VH: QVQLVQSGAEVKKPGASVKVSCKASGYAFTGYWMNWVRQAPGQGLEWIGRIFPGLGHTNYAQKFQGRATLTEDTSTSTAYMELSSLRSEDTAVYYCARDYSDYYFDYWGQGTLVTVSS VL: DIQMTQSPSSLSASVGDRVTITCRASEDINTYLNWYQQKPGKAPKLLIYYTSRLHSGVPSRFSGSGSGTDYTLTISSLQPEDFATYYCQQGGTLPWTFGQGTKLEIK | 0.235 nM | 4.5 fold | 5.53e-05 s⁻¹ | 235000 M⁻¹ s⁻¹ | 3.8 fold | 11.4 fold | 17.2% | 90.1 pM
12 | S7AB-H8.32 (antibody, V domains shown) VH: QVQLVQSGAEVKKPGASVKVSCKASGYAFTMAWMNWVRQAPGQGLEWIGRIFPGYGHTNYAQKFQGRATLTEDTSTSTAYMELSSLRSEDTAVYYCARDYSDYYFDYWGQGTLVTVSS VL: DIQMTQSPSSLSASVGDRVTITCRGSQDINTYLNWYQQKPGKAPKLLIYYTSRLHSGVPSRFSGSGSGTDYTLTISSLQPEDFATYYCQQGGTLPWTFGQGTKLEIK | 0.356 nM | 2.9 fold | 3.93e-05 s⁻¹ | 111000 M⁻¹ s⁻¹ | 3.7 fold | 11.2 fold | 3.4% | 91.3 pM
13 | S7AB-H8.22 (antibody, V domains shown) VH: QVQLVQSGAEVKKPGASVKVSCKASGYAFTMAWMNWVRQAPGQGLEWIGRIFPGYGHTNYAQKFQGRATLTEDTSTSTAYMELSSLRSEDTAVYYCARDYSDYYFDYWGQGTLVTVSS VL: DIQMTQSPSSLSASVGDRVTITCRASEDINTYLNWYQQKPGKAPKLLIYYTSRLHSGVPSRFSGSGSGTDYTLTISSLQPEDFATYYCQQGGTLPWTFGQGTKLEIK | < 0.001 nM | > 1000 fold | < 1e-07 s⁻¹ | 135000 M⁻¹ s⁻¹ | 3.1 fold | 9.4 fold | 3.9% | 109 pM
